Each block holds one binder with its values, some of them ahead of it.
Experiments:
[1] = target: T1, rHuman Erythropoietin R/Fc Chimera, CF (R&D Systems Cat#963-ER) (human, UniProt P19235 25-250); experiment: MSD ECL multi-spot assay, antigen spotted on plate, Fab 0.93 uM; blank spot 859
T1 construct: Bought protein; also called EPOR; EPO R/Fc; Fc part of the bought chimera not given
T1 sequence: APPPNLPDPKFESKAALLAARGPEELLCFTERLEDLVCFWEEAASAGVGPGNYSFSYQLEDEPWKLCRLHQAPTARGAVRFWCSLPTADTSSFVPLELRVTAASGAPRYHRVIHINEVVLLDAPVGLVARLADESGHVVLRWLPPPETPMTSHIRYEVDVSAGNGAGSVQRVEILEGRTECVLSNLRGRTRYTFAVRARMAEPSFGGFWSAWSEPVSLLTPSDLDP

[2] = target: T2, Recombinant Human DLL4 (R&D Systems Cat#1506-D4/CF) (human, UniProt Q9NR61 27-524); experiment: as above
T2 construct: Bought protein; also called delta-like protein 4; rHuman DLL4

[3] = target: T3, rHuman CD44/Fc Chimera, CF (R&D Systems Cat#3660-CD) (human, UniProt P16070 21-220); experiment: as above
T3 construct: Bought protein; Fc part of the bought chimera not given

[4] = target: T4, rHuman ErbB2/Fc Chimera, CF (R&D Systems Cat#1129-ER) (human, UniProt P04626 23-652); experiment: as above
T4 construct: Bought protein; also called HER2/neu; human epidermal growth factor 2 receptor; Fc part of the bought chimera not given

[5] = target: T5, rHuman P-Cadherin/Fc Chimera, CF (R&D Systems Cat#861-PC) (human, UniProt P22223 108-654); experiment: as above
T5 construct: Bought protein; also called CDH3; Fc part of the bought chimera not given

[6] = target: T6, rHuman IGF-1 sR (IGF-1 sR), CF (R&D Systems Cat#391-GR) (human, UniProt P08069 31-932); experiment: as above
T6 construct: Bought soluble receptor; also called insulin-like growth factor-1 soluble receptor; IGF-R1

[7] = target: T7, rHuman Notch-1/Fc Chimera, CF (R&D Systems Cat#3647-TK) (human, UniProt P46531 19-526); experiment: as above
T7 construct: Bought protein; Fc part of the bought chimera not given

[8] = target: T8, rHuman Erythropoietin R/Fc Chimera, CF (R&D Systems Cat#963-ER) (human, UniProt P19235 25-250); experiment: ECL (MSD multi-spot) titration, Fab at 0.00391 uM; blank spot 576
T8 construct: Bought protein; also called EPO R/Fc; EPOR; not shown: Fc of the bought chimera
T8 sequence: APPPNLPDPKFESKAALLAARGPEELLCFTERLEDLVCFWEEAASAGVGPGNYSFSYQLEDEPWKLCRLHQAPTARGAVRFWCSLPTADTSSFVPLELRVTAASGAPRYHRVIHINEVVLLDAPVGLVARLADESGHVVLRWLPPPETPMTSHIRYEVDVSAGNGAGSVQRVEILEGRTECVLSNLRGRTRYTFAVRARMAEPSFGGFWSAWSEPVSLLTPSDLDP

[9] = target: T9, rHuman EGF R/Fc Chimera, CF (R&D Systems Cat#344-ER) (human, UniProt P00533 25-645); experiment: as above
T9 construct: Bought protein; also called epidermal growth factor receptor; not shown: Fc of the bought chimera

[10] = target: T10, rHuman P-Cadherin/Fc Chimera, CF (R&D Systems Cat#861-PC) (human, UniProt P22223 108-654); experiment: as above
T10 construct: Bought protein; not shown: Fc of the bought chimera

[11] = target: T11, rHuman IGF-1 sR, CF (R&D Systems Cat#391-GR) (human, UniProt P08069 31-932); experiment: as above
T11 construct: Bought soluble receptor; also called insulin-like growth factor-1 soluble receptor; IGF-R1

[12] = target: T12, Recombinant Human DLL4 (R&D Systems Cat#1506-D4/CF) (human, UniProt Q9NR61 27-524); experiment: as above
T12 construct: Bought protein; also called delta-like protein 4

[13] = target: T8, rHuman Erythropoietin R/Fc Chimera, CF …; experiment: ECL (MSD multi-spot) titration, Fab at 0.01563 uM; blank spot 906
[14] = target: T9, rHuman EGF R/Fc Chimera, CF (R&D …); experiment: as above
[15] = target: T10, rHuman P-Cadherin/Fc Chimera, CF (R&D …); experiment: as above
[16] = target: T11, rHuman IGF-1 sR, CF (R&D Systems …); experiment: as above
[17] = target: T12, Recombinant Human DLL4 (R&D Systems …); experiment: as above
[18] = target: T8, rHuman Erythropoietin R/Fc Chimera, CF …; experiment: ECL (MSD multi-spot) titration, Fab at 0.25 uM; blank spot 6344
[19] = target: T9, rHuman EGF R/Fc Chimera, CF (R&D …); experiment: as above
[20] = target: T10, rHuman P-Cadherin/Fc Chimera, CF (R&D …); experiment: as above
[21] = target: T11, rHuman IGF-1 sR, CF (R&D Systems …); experiment: as above
[22] = target: T12, Recombinant Human DLL4 (R&D Systems …); experiment: as above
[23] = target: T8, rHuman Erythropoietin R/Fc Chimera, CF …; experiment: ECL (MSD multi-spot) titration, Fab at 0.0625 uM; blank spot 1738
[24] = target: T9, rHuman EGF R/Fc Chimera, CF (R&D …); experiment: as above
[25] = target: T10, rHuman P-Cadherin/Fc Chimera, CF (R&D …); experiment: as above
[26] = target: T11, rHuman IGF-1 sR, CF (R&D Systems …); experiment: as above
[27] = target: T12, Recombinant Human DLL4 (R&D Systems …); experiment: as above
[28] = target: T13, rHuman HGF R/c-MET/Fc Chimera, CF (R&D Systems Cat#358-MT/CF) (human, UniProt P08581 25-932); experiment: ECL (MSD multi-spot) titration, Fab at 360 nM; blank spot 462
T13 construct: Bought protein; also called HGF R/Fc; hepatocyte growth factor receptor; not shown: Fc of the bought chimera

[29] = target: T8, rHuman Erythropoietin R/Fc Chimera, CF …; experiment: as above
[30] = target: T14, rHuman ErbB2/Fc Chimera, CF (R&D Systems Cat#1129-ER) (human, UniProt P04626 23-652); experiment: as above
T14 construct: Bought protein; also called HER2/neu; human epidermal growth factor 2 receptor; not shown: Fc of the bought chimera

[31] = target: T10, rHuman P-Cadherin/Fc Chimera, CF (R&D …); experiment: as above
[32] = target: T15, rHuman CD44/Fc Chimera, CF (R&D Systems Cat#3660-CD) (human, UniProt P16070 21-220); experiment: as above
T15 construct: Bought protein; not shown: Fc of the bought chimera

[33] = target: T11, rHuman IGF-1 sR, CF (R&D Systems …); experiment: as above
[34] = target: T13, rHuman HGF R/c-MET/Fc Chimera, CF (R&D …); experiment: ECL (MSD multi-spot) titration, Fab at 36 nM; blank spot 413
[35] = target: T8, rHuman Erythropoietin R/Fc Chimera, CF …; experiment: as above
[36] = target: T14, rHuman ErbB2/Fc Chimera, CF (R&D …); experiment: as above
[37] = target: T10, rHuman P-Cadherin/Fc Chimera, CF (R&D …); experiment: as above
[38] = target: T15, rHuman CD44/Fc Chimera, CF (R&D Systems …); experiment: as above
[39] = target: T11, rHuman IGF-1 sR, CF (R&D Systems …); experiment: as above
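Note: blank spot per well as comparator with Hit at signal to blank ratio of 4 or more.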

ECL signal [1]: 4240 | ECL signal [2]: 9630 | ECL signal [3]: 1450 | ECL signal [4]: 1610 | ECL signal [5]: 2420 | ECL signal [6]: 1790 | ECL signal [7]: 1920
B1: Fab VH1-46_IGHD6-13*01_IGHJ4*01 & O1_IGKJ1*01 (Fab, V domains shown)
VH: QVQLVQSGAEVKKPGASVKVSCKASGYTFTSYYMHWVRQAPGQGLEWMGIINPSGGSTSYAQKFQGRVTMTRDTSTSTVYMELSSLRSEDTAVYYCAREGYSSSWYDYFDYWGQGTLVTVSS
VL: DIVMTQTPLSLPVTPGEPASISCRSSQSLLDSDDGNTYLDWYLQKPGQSPQLLIYTLSYRASGVPDRFSGSGSGTDFTLKISRVEAEDVGVYYCMQRIEFPSWTFGQGTKVEIK
notes: Fab from E. coli; VH joined to the CH1 (Flag and His tags) of Plasmid A, VL to the kappa CL of Plasmid C

ECL signal [8]: 5020 | ECL signal [9]: 35900 | ECL signal [10]: 1960 | ECL signal [11]: 822 | ECL signal [12]: 1550 | ECL signal [13]: 11300 | ECL signal [14]: 70800 | ECL signal [15]: 4940 | ECL signal [16]: 1740 | ECL signal [17]: 4020 | ECL signal [18]: 49200 | ECL signal [19]: 117000 | ECL signal [20]: 25500 | ECL signal [21]: 11000 | ECL signal [22]: 27700 | ECL signal [23]: 21100 | ECL signal [24]: 94800 | ECL signal [25]: 7740 | ECL signal [26]: 3150 | ECL signal [27]: 8050
B2: Fab VH1-46_IGHD2-15*01_IGHJ2*01 & L2_IGKJ1*01 (Fab, V domains shown)
VH: QVQLVQSGAEVKKPGASVKVSCKASGYTFTSYYMHWVRQAPGQGLEWMGIINPSGGSTSYAQKFQGRVTMTRDTSTSTVYMELSSLRSEDTAVYYCAREGYCSGGSCYSYWYFDLWGRGTLVTVSS
VL: not shown
notes: also called Fab No. 6

ECL signal [28]: 581 | ECL signal [29]: 4720 | ECL signal [30]: 647 | ECL signal [31]: 636 | ECL signal [32]: 740 | ECL signal [33]: 535 | ECL signal [34]: 613 | ECL signal [35]: 2980 | ECL signal [36]: 600 | ECL signal [37]: 693 | ECL signal [38]: 679 | ECL signal [39]: 486
B3: Fab VH4-28_IGHD7-27*01_IGHJ1*01 & L2_IGKJ1*01 (Fab, V domains shown)
VH: QVQLQESGPGLVKPSDTLSLTCAVSGYSISSSNWWGWIRQPPGKGLEWIGYIYYSGSTYYNPSLKSRVTMSVDTSKNQFSLKLSSVTAVDTAVYYCARTNWGAEYFQHWGQGTLVTVSS
VL: not shown
notes: also called Fab No. 1

Reference: US20120058906A1 (published 2012)
